These results are taken from patent publication US20120020988A1 (Hoffmann-La Roche, published 2012).

Residue numbers refer to the chain shown, from its start. Names and notes keep the numbering of the source.

First the molecules themselves.
T1: human TSLPR (on cells) (human, UniProt Q9HC73 23-371)
T1 sequence: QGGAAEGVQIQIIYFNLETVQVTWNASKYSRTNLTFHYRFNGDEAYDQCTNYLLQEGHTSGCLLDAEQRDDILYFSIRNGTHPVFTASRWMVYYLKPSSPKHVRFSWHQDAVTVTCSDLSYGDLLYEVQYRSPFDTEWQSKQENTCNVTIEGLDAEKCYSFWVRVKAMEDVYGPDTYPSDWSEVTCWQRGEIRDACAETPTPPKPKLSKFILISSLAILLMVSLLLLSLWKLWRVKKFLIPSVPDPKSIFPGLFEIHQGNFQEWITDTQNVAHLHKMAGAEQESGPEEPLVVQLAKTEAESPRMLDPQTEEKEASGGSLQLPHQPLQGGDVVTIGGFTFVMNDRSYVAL

T2: Recombinant human TSLPR-Fc (human, UniProt Q9HC73 23-231)
T2 construct: also called recombinant human soluble TSLPR-Fc fusion protein; not shown: Fc part
T2 sequence: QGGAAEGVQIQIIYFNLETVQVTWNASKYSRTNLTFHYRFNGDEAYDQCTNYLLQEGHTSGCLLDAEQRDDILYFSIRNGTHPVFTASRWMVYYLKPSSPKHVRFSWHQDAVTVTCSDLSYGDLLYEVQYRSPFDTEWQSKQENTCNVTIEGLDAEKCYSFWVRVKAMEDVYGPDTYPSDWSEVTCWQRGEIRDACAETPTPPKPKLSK

T3: TSLPR-ECD (extracellular domain of TSLPR) (human, UniProt Q9HC73 23-231)
T3 construct: Obtained by cleavage of a TSLPR-Fc fusion protein expressed in HEK cells; also called analyte 2
T3 sequence: T2 sequence

T4: Cynomolgous TSLPR (on HEK293 cells) (Cynomolgous monkey)
T4 construct: also called Cyno-TSLPR-HEK293; HEK-Cyno-TSLPR
T4 chain: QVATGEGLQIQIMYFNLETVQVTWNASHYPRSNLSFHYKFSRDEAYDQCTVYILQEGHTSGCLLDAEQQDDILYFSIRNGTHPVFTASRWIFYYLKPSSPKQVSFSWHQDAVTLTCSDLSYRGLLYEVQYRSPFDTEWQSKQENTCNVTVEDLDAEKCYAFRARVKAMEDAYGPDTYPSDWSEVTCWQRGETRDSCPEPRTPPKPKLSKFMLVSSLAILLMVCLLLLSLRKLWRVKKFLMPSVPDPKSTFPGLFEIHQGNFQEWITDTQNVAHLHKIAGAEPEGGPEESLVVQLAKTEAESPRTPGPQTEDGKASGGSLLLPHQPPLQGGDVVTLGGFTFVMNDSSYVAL

B1: 1D6.C9 (WO2007/112146) (antibody, from another filing, V domains shown)
VH: QIQLGQSGPELKKPGETVKISCKASGYTFTTYGMSWVKQAPGKGLQWMGWINTYSGVPRYADDFKGRFAFSLETSASTAYLQIYNLKNEDTATYFCTREGFITTVVGAAGRFVYWGQGTLVTVSA
VL: DIVMTQSHKFMSTSVGDRVSITCKASQDVGTAVAWYQQKPGQSPKLLIYWASTRHTGVPDRFTGSGSGTDFTLTLNNVQSEDLADYFCQQYSTYPTFGSGTKLELKR
B2: TSLPR-012_166, CDR grafted (antibody, V domains shown)
VH: QVQLQESGPGLVKPSQTLSLTCTVSGFSITTSGYYWSWIRQHPGKGLEWIGYIGYNSKTYYSPSLKSRVTISRDTSKNQFSLKLSSVTAADTAVYYCARSLYGGYKDAFDSWGQGTLVTVSS
VL: DIQMTQSPSSLSASVGDRVTITCRASQSIGTSLHWYQHRPGETPKLLIKFASRSISGVPSRFSGSGSGTDFTLTISSLQPEDFATYYCQQSPGFPPTFGQGTKLEIKR
notes: Humanized (CDR grafted) variant of hamster TSLPR-012; human kappa and human IgG1 or IgG4(S228P,L235E) appear only as embodiments
B3: TSLPR-012 (hamster) (antibody, V domains shown)
VH: QIQLQESGPGLVKPSQSLSLTCSVTGFSITTSGYYWTWIRQFPGKKLEWMGYIGYNSKTYYNPSLKSRISITRDTSKNQFLLHLNSVTTEDTATYYCARSLYGGYKDAFDSWGQGTLVTVSS
VL: DVVLTQTPATLSAIPGERVTMTCKASQSIGTSLHWYQHRPNETPRLLIKFASRSITGIPSRFSGSGSGTDFTLGINNLEAEDFAIYYCQQSPGFPPTFGSGTKLEINR
notes: Parent Armenian hamster monoclonal antibody; the hamster constant regions are not; also called TSLP-012; hamster antibody TSLPR-012
B4: TSLPR-012_189, CDR grafted (antibody, V domains shown)
VH: QVQLVESGGGLVKPGGSLRLSCAASGFSITTSGYYWTWIRQFPGKGLEWMGYIGYNSKTYYNPALKSRITISRDNAKNSLYLQMNSLRAEDTAVYYCARSLYGGYKDAFDSWGQGTLVTVSS
VL: EIVMTQSPATLSVSPGERATLSCRASQSIGTSLHWYQQKPGQAPRLLIKFASRSITGIPARFSGSGSGTEFTLTISSLQSEDFAVYYCQQSPGFPPTFGQGTKLEIKR
notes: as for B2
B5: TSLPR-012_141, CDR grafted (antibody, V domains shown)
VH: B4 VH
VL: B2 VL with H38Q, R39K, E42K, T43A, S54L, I55Q
notes: as for B2
B6: TSLPR-012_75, CDR grafted (antibody, V domains shown)
VH: B4 VH
VL: EIVLTQSPDFQSVTPKEKVTITCRASQSIGTSLHWYQQKPDQSPKLLIKFASRSISGVPSRFSGSGSGTDFTLTINSLEAEDAATYYCQQSPGFPPTFGQGTKLEIKR
notes: as for B2

In the first experiment the target is T1, human TSLPR (on cells). Briefly: cell-based or functional assay.
As for B1, the IC50 proliferation (example 4) came to 0.084 µg/mL.

The next experiment concerns the target TSLPR-ECD (extracellular domain of TSLPR) (human) (UniProt Q9HC73). Briefly: SPR (Biacore 3000), antibody captured by anti-IgG, TSLPR-ECD as analyte, 25 °C, 1:1 Langmuir fit. Background: Surface plasmon resonance follows binding to a sensor surface in real time, without labels.
Take B1: the Kd (usually the equilibrium constant for the complex coming apart) amounted to 2.97 nM.

In a further experiment the target is T1, human TSLPR (on cells). Briefly: FACS on BA/F3 cells stably overexpressing human TSLPR and IL-7Rα. On the procedure:
(§1) BA/F3-TSLPR/IL7Rα or Cyno-TSLPR-HEK293 cells were starved from TSLP overnight, harvested by centrifugation, washed once in PBS and re-suspended in FACS buffer (PBS/5% FCS) at 10⁶/ml. 100 μl of cell suspension were incubated in a 96-well round-bottom plate well together with 100 μl of anti-TSLPR antibody solution for 45 minutes on ice. After three washes with FACS buffer, cells were re-suspended in a solution of PE-coupled anti-hamster-F(ab)2 (Dianova, Hamburg, Germany, #127-115-160) (1:200 in FACS buffer) and incubated for 30 minutes on ice. After three further washes cells were re-suspended in 200 μl of FACS buffer and measured on a FACSCanto™ flow cytometer (10,000 cells, flow rate 3).
For B2, a half-maximal effect (EC50) was put at 0.0118 µg/mL.

With B3, the EC50 (as a rule, the midpoint of the concentration-response curve) is 0.0156 µg/mL.

Turning to B4, the midpoint of the response, the EC50, lay at 0.0149 µg/mL.

B5: the EC50 came to 0.0133 µg/mL.

In turn, B6 came in with an EC50 of 0.0157 µg/mL.

The target of the next experiment is T2, Recombinant human TSLPR-Fc. Nature of the experiment: blocking ELISA: antibody on coated TSLPR-Fc, then TSLP + IL7Rα-Fc; TSLP binding detected. On the procedure: Recombinant human TSLPR-Fc was coated to 96-well Nunc Maxisorp™ plate wells by incubating 50 μl of a 0.2 μg/ml solution of TSLPR-Fc in PBS per well for 1 h at RT. Subsequently the wells were blocked with 1% Crotein™ C in PBS (blocking buffer) for 1 h at RT, followed by two washes with wash buffer (ice-cold PBS/0.05% TWEEN® 20). 50 μl of anti-TSLPR antibody solution (antibodies and according to WO 2007/112146) were then added to the wells and incubated for 2 h at 4° C., followed by four wash steps. After addition of 50 μl of a mixture of human recombinant TSLP (12.5 ng/ml) and human recombinant IL7Rα-Fc (1 μg/ml) in blocking buffer, the plate was shaken for 1 h at 4° C., followed by further four wash steps. TSLP binding was detected by incubation with 50 μl of biotinylated anti-TSLP antibody (0.08 μg/ml in blocking buffer), followed by four washes and incubation with 50 μl of streptavidin-HRP (0.25 μg/ml in blocking buffer) per well. After another four washing steps, color was developed by incubation with 50 μl of 3,3,5,5-Tetramethylbenzidine substrate, followed by addition of 50 μl of 1 N HCl. Absorbance was read out at 450 and 620 nm.
On the technique in general: ELISA stands for enzyme-linked immunosorbent assay.
Consider B2, for which the IC50 – broadly, the midpoint of a concentration-inhibition curve – worked out at 0.0122 µg/mL.

As for B3, the IC50 was determined as 0.0088 µg/mL.

In the case of B4, the IC50 amounted to 0.0136 µg/mL.

On to B5, for which the IC50 was determined as 0.0104 µg/mL.

In the case of B6, the IC50 was determined as 0.0134 µg/mL.

With B1, the IC50 worked out at 0.0152 µg/mL.

The target in a further experiment is T1, human TSLPR (on cells). Briefly: cell-based or functional assay. This is another data set of the same source.
B5: the “IC50, IL-5 release in Th2 polarization assay” value was determined as 1.62 nM; the “IC50, IL-13 release in Th2 polarization assay” value was determined as 2.57 nM; the “IC50, TARC secretion by human dendritic cells stimulated with TSLP” value was determined as 2.4 nM; the “average IC50, mast cell cytokine production (IL-13, IL-5, GMCSF)” value lay in the range of 0.04 to 0.06 nM.

A further experiment concerns the target T3, TSLPR-ECD (extracellular domain of …). Nature of the experiment: SPR (Biacore 3000), antibody captured by anti-IgG, TSLPR-ECD as analyte, 25 °C, 1:1 Langmuir fit. On the procedure: The binding properties of monoclonal anti-TSLPR antibodies and according to WO 2007/112146 were analyzed by surface plasmon resonance (SPR) technology using a Biacore 3000 instrument. The affinity was determined using an assay setup with capturing antibodies. These capturing antibodies (goat anti-human-IgG, goat anti-hamster-IgG) were immobilized on the surface of a CM5 biosensorchip using amine coupling chemistry. The capturing antibodies were injected in sodium acetate buffer, pH 5.0 at a concentration of 5 μg/ml aiming for a surface density of approx 1000 RU. Remaining reactive groups were inactivated by an injection of 1 M ethanolamine/HCl pH 8.5. Running buffer was HBS-P. The anti-TSLPR antibodies (analyte 1) were diluted in HBS-P to a concentration of 25 nM and injected at a flow rate of 5 μl/min for 3 minutes, resulting in a binding signal of 100-400RU dependent on the antibodies applied. The extracellular domain of TSLPR, TSLPR-ECD, obtained by cleavage of a TSLPR-Fc fusion protein expressed in HEK cells (analyte 2), was injected in concentrations ranging from 0-50 nM at a flow rate of 20 μl/min. The contact time (association phase) was 3 min for TSLPR followed by 5 minutes of dissociation. Regeneration solution 10 mM glycine HCl pH1.5 or 10 mM glycine HCl pH1.7 was injected twice at a flow rate of 10 μl/min for 1 min to remove any bound protein after each binding cycle. All interactions were performed at 25° C. (standard temperature). Signals were detected at a detection rate of 1 signal/second. The signals from a reference flow cell (FC1: same capturing antibody and addition of control antibody) and from blank buffer injections were subtracted and data were evaluated. All binding curves were fitted to a 1:1 Langmuir binding model. Association rate constant (ka), dissociation rate constant (kd) and the dissociation equilibrium constant (KD) were calculated accordingly.
In turn, B2 registered a Kd of 2.45 nM.

Consider B3, for which binding was characterised by a dissociation constant (Kd) of 0.25 nM.

With B4, the Kd was determined as 0.6 nM.

Molecule B5 showed a Kd of 0.87 nM.

Molecule B6 yielded a Kd of 0.5 nM.

The target of the next experiment is T4, Cynomolgous TSLPR (on HEK293 cells). Nature of the experiment: FACS on HEK293 cells transiently transfected with Cynomolgous TSLPR. On the procedure: as §1
The molecule B2 showed an EC50 of 0.0086 µg/mL.

B3 registered an EC50 of 0.0118 µg/mL.

On to B4, for which the midpoint of the response, the EC50, lay at 0.0103 µg/mL.

The molecule B5 gave an EC50 of 0.0097 µg/mL.

B6 came in with an EC50 of 0.0108 µg/mL.

Another experiment concerns the target T1, human TSLPR (on cells). Nature of the experiment: cell-based or functional assay. The source holds these as a separate data set.
B2: the “IC50 DC assay (example 7), TARC secretion” value (“IC50 DC assay” below) came out at 0.086 µg/mL and the “IC50 proliferation (example 4)” value was 0.034 µg/mL.

In the case of B3, the “IC50 DC assay” value was found to be 0.129 µg/mL and the “IC50 proliferation (example 4)” value came out at 0.026 µg/mL.

Consider B4, for which the “IC50 DC assay” value turned out to be 0.023 µg/mL and the “IC50 proliferation (example 4)” value came out at 0.025 µg/mL.

As for B5, the “IC50 DC assay” value turned out to be 0.046 µg/mL and the “IC50 proliferation (example 4)” value is 0.037 µg/mL.

As to B6, the “IC50 DC assay” value was 0.042 µg/mL and the “IC50 proliferation (example 4)” value was found to be 0.026 µg/mL.
